Here are results for four molecules from patent US20240101686A1 (SIMCERE ZAIMING PHARMACEUTICAL, published 2024).

Read-outs that look alike come from different tables or passages of the source.

By Kd is commonly meant the constant that tells how readily two partners part at equilibrium. The term koff denotes the first-order rate constant of dissociation. As usually defined, the kon is the rate constant with which the complex forms.

The target of test [1] is T1, human EGFR-His-tagged fusion protein (human, UniProt P00533 25-645).
T1 construct: extracellular domain; bought; also called human EGFR protein; human EGFR-His protein

Test [2] concerns the target T1, human EGFR-His-tagged fusion protein. This is another data set of the same source.
Test [3] shares this target. This is another data set of the same source.
The target is the same in test [4]. The source holds these as a separate data set.
The target in the next test is T2, pepvIII polypeptide (human).
T2 construct: synthetic peptide (GL Biochem); also called Leu25-His37 polypeptide
T2 peptide: LEEKKGNYVVTDH

Test [5] concerns the target T1, human EGFR-His-tagged fusion protein. This is another data set of the same source.
The target is the same in test [6]. The source holds these as a separate data set.
The target is the same in test [7]. This is another data set of the same source.
The target is the same in test [8]. The source holds these as a separate data set.
Test [9] concerns the target T3, human EGFRvIII-His tag protein (extracellular domain Leu25-Ser378) (human, UniProt P00533 298-645).
T3 construct: Made in HEK293E cells, purified on nickel column; also called human EGFRvIII protein; EGFRvIII protein; not shown: His tag

The target in test [10] is T3, human EGFRvIII-His tag protein …. This is another data set of the same source.
In test [11] the target is T4, murine EGFR protein (murine, UniProt Q01279 25-647).
T4 construct: Bought protein

Test [12] has as its target T4, murine EGFR protein. This is another data set of the same source.
Test [13] concerns the target T4, murine EGFR protein. The source holds these as a separate data set.
Test [14] has as its target T3, human EGFRvIII-His tag protein …. This is another data set of the same source.
Test [15] has as its target T4, murine EGFR protein. This is another data set of the same source.
Test [16] addresses T4, murine EGFR protein. This is another data set of the same source.
Test [17] addresses T3, human EGFRvIII-His tag protein …. The source holds these as a separate data set.
Test [18] addresses T4, murine EGFR protein. This is another data set of the same source.
In test [19] the target is T3, human EGFRvIII-His tag protein …. The source holds these as a separate data set.
Test [20] has the same target. The source holds these as a separate data set.
Test [21] concerns the target T4, murine EGFR protein. This is another data set of the same source.
Test [22] addresses T4, murine EGFR protein. The source holds these as a separate data set.
For test [23], the target named is T3, human EGFRvIII-His tag protein …. The source holds these as a separate data set.
Test [24] has the same target. The source holds these as a separate data set.
In test [25] the target is T5, murine EGFR protein (murine, UniProt Q01279 25-647).
T5 construct: Bought protein
This is another data set of the same source.

In the next test the target is T6, monkey EGFR protein (cynomolgus monkey, UniProt P55245 25-645 (rhesus entry)).
T6 construct: Bought protein (SB 90285-C08H); also called cynomolgus monkey EGFR

For the next test, the target named is T7, human EGFR protein (human, UniProt P00533 25-645).
T7 construct: also called human EGFR-His; human EGFR-ECD protein; not shown: His tag

Test [26] addresses T8, human EGFRvIII-His tag protein (human, UniProt P00533 298-645).
T8 construct: Made in HEK293E, purified on nickel column; also called human EGFRvIII protein; not shown: His tag

Test [27] deals with T9, monkey EGFR protein (commercial, SB, catalog number 90285-C08H) (monkey).
T9 construct: Bought protein used to coat ELISA plates
Kind of test: ELISA, coated monkey EGFR protein, antibody 0.1 nM. Background: In an ELISA, binding on a coated surface is turned into a signal by an enzyme label.

For test [28], the target named is T9, monkey EGFR protein (commercial, SB, …). Kind of test: ELISA, coated monkey EGFR protein, antibody 1 nM.
The target is the same in test [29]. Description: ELISA, coated monkey EGFR protein, antibody 0 nM (blank).
Test [30] shares this target. Description: ELISA, coated monkey EGFR protein, antibody 0.0001 nM.
Test [31] has the same target. Kind of test: ELISA, coated monkey EGFR protein, antibody 0.01 nM.
In test [32] the target is T10, cynomolgus monkey EGFR on HEK293T-monkey EGFR cells (cynomolgus monkey, UniProt P55245 25-1210 (rhesus entry)). Description: FACS, HEK293T-monkey EGFR cells (specificity assay). (A flow cytometer gives signals particle by particle.)
Test [33] concerns the target T10, cynomolgus monkey EGFR on …. Kind of test: FACS, HEK293T-monkey EGFR cells.
Test [34] addresses T9, monkey EGFR protein (commercial, SB, …). Kind of test: ELISA, coated monkey EGFR protein, antibody 10 nM.
Test [35] shares this target. Kind of test: ELISA, coated monkey EGFR protein, antibody 100 nM.
For test [36] the target is unchanged. Kind of test: ELISA, coated monkey EGFR protein, antibody 0.001 nM.

B1: 30D8-hIgG1 (antibody, V domains shown)
VH: EVQLVESGGGLVKPGGSLRLSCEASGFTFSDAWMSWVRQAPGKGLEWVGRIKSKTDGGTTDYVVPLNGRFIISRDDSRNTLYLQLNNLKTEDTAVYYCTTVPGSYGYWGQGTLVTVSS
VL: DIVMTQSPLSLPVTPGEPASISCRSSQSLLHNKRNNYLDWFLQKPGQSPQLLIYLASNRASGVPDRFSGGGSGTDFTLKISRVEAEDVGVYYCMQAQQTPITFGQGTRLEIK
As to B1, the OD450 in test [1] worked out at 0.05; in [2] it was 0.05; in [3], 0.06; in [4], 0.05; in test [5], 0.07; in [6], 0.05. Also, the OD450 in test [7] was 0.05; in test [8] it was 0.09. In the test with pepvIII polypeptide, the binding result is given as “binds”.

B2: 30D8-hIgG1 (antibody, V domains shown)
VH: EVQLVESGGGLVKPGGSLRLSCEASGFTFSDAWMSWVRQAPGKGLEWVGRIKSKTDGGTTDYVVPLNGRFIISRDDSRNTLYLQLNNLKTEDTAVYYCTTVPGSYGYWGQGTLVTVSS
VL: DIVMTQSPLSLPVTPGEPASISCRSSQSLLHNKRNNYLDWFLQKPGQSPQLLIYLASNRASGVPDRFSGGGSGTDFTLKISRVEAEDVGVYYCMQAQQTPITFGQGTRLEIK
notes: Variable regions cloned with human IgG1 heavy chain constant region and human light chain constant region
In the case of B2, the OD450 in test [9] amounted to 2.52; in test [10], 1.89; with murine EGFR protein [11], 0.06; with murine EGFR protein [12], 0.06; in the test with murine EGFR protein [13], 0.06; in test [14] it was 0.07. Moreover, the OD450 in the test with murine EGFR protein [15] was 0.06; in the test with murine EGFR protein [16], 0.06; in test [17] it was 0.07; with murine EGFR protein [18] it was 0.1; in test [19], 0.15; in [20], 2.61. Further, the OD450 with murine EGFR protein [21] is 0.06; with murine EGFR protein [22], 0.06; in test [23] it was 0.69; in test [24], 2.25.

B3: 30D8-hIgG1 (antibody, V domains shown)
VH: EVQLVESGGGLVKPGGSLRLSCEASGFTFSDAWMSWVRQAPGKGLEWVGRIKSKTDGGTTDYVVPLNGRFIISRDDSRNTLYLQLNNLKTEDTAVYYCTTVPGSYGYWGQGTLVTVSS
VL: DIVMTQSPLSLPVTPGEPASISCRSSQSLLHNKRNNYLDWFLQKPGQSPQLLIYLASNRASGVPDRFSGGGSGTDFTLKISRVEAEDVGVYYCMQAQQTPITFGQGTRLEIK
notes: anti-EGFRvIII control
On to B3, for which the binding result was “no binding (tested: 200 nM (highest antigen concentration))” in the test with murine EGFR protein [25], “no binding (tested: 200 nM (highest antigen concentration))” with monkey EGFR protein and “no binding (tested: 30 µg/mL (highest EGFR concentration))” in the test with human EGFR protein. In addition, the Kd in test [26] is 11.7 nM. In addition, the koff in test [26] was 0.00229 s⁻¹. Besides, in test [26], the kon came to 197000 M⁻¹ s⁻¹.

B4: 30D8-hIgG1 (antibody, V domains shown)
VH: EVQLVESGGGLVKPGGSLRLSCEASGFTFSDAWMSWVRQAPGKGLEWVGRIKSKTDGGTTDYVVPLNGRFIISRDDSRNTLYLQLNNLKTEDTAVYYCTTVPGSYGYWGQGTLVTVSS
VL: DIVMTQSPLSLPVTPGEPASISCRSSQSLLHNKRNNYLDWFLQKPGQSPQLLIYLASNRASGVPDRFSGGGSGTDFTLKISRVEAEDVGVYYCMQAQQTPITFGQGTRLEIK
notes: Anti-EGFRvIII control
On to B4, for which the OD450 in [27] is 0.06; in test [28], 0.06; in test [29] it was 0.06; in [30], 0.05; in test [31], 0.06; in test [34], 0.08. In addition, the OD450 in test [35] was determined as 0.19; in test [36], 0.06. Besides, the Max_MFI in test [32] is 314. Moreover, in [33], the “Max MFI” value is 77. Further, in test [33], the binding result is reported as “no binding”.
